# Assay results from patent US20180273587A1 (AILERON THERAPEUTICS, published 2018).
# Positions of bridges follow the written chain, without caps; N, C: chain ends. Non-standard residues stand in square brackets, D forms with d. Phe(4-F) = N[C@@H](Cc1ccc(F)cc1)C(=O)O; 2Nal = N[C@@H](Cc1ccc2ccccc2c1)C(=O)O; R8 = C=CCCCCCC[C@@](C)(N)C(=O)O; hLeu = CC(C)CC[C@H](N)C(=O)O; S5 = C=CCCC[C@](C)(N)C(=O)O
# B1: SEQ ID NO: 1779 (peptide)
# peptide: Ac-AWIAAALR[R8][hLeu]GDAFN[S5]Y[Phe(4-F)]A-NH2
# modifications: staple 9-16
# SMILES: CC[C@H](C)[C@H](NC(=O)[C@H](Cc1c[nH]c2ccccc12)NC(=O)[C@H](C)NC(C)=O)C(=O)N[C@@H](C)C(=O)N[C@@H](C)C(=O)N[C@@H](C)C(=O)N[C@@H](CC(C)C)C(=O)N[C@@H](CCCNC(=N)N)C(=O)N[C@]1(C)CCCCCCC=CCCC[C@@](C)(C(=O)N[C@@H](Cc2ccc(O)cc2)C(=O)N[C@@H](Cc2ccc(F)cc2)C(=O)N[C@@H](C)C(N)=O)NC(=O)[C@H](CC(N)=O)NC(=O)[C@H](Cc2ccccc2)NC(=O)[C@H](C)NC(=O)[C@H](CC(=O)O)NC(=O)CNC(=O)[C@H](CCC(C)C)NC1=O
# B2: SEQ ID NO: 1780 (peptide)
# peptide: Ac-AWIAAALR[R8][hLeu]GDAFN[S5]A[Phe(4-F)]A-NH2
# modifications: staple 9-16
# SMILES: CC[C@H](C)[C@H](NC(=O)[C@H](Cc1c[nH]c2ccccc12)NC(=O)[C@H](C)NC(C)=O)C(=O)N[C@@H](C)C(=O)N[C@@H](C)C(=O)N[C@@H](C)C(=O)N[C@@H](CC(C)C)C(=O)N[C@@H](CCCNC(=N)N)C(=O)N[C@]1(C)CCCCCCC=CCCC[C@@](C)(C(=O)N[C@@H](C)C(=O)N[C@@H](Cc2ccc(F)cc2)C(=O)N[C@@H](C)C(N)=O)NC(=O)[C@H](CC(N)=O)NC(=O)[C@H](Cc2ccccc2)NC(=O)[C@H](C)NC(=O)[C@H](CC(=O)O)NC(=O)CNC(=O)[C@H](CCC(C)C)NC1=O
# B3: SEQ ID NO: 1727 (peptide)
# peptide: Ac-IHIAAALR[R8]IGDAFN[S5]YYA-NH2
# modifications: staple 9-16
# SMILES: CC[C@H](C)[C@H](NC(C)=O)C(=O)N[C@@H](Cc1c[nH]cn1)C(=O)N[C@H](C(=O)N[C@@H](C)C(=O)N[C@@H](C)C(=O)N[C@@H](C)C(=O)N[C@@H](CC(C)C)C(=O)N[C@@H](CCCNC(=N)N)C(=O)N[C@]1(C)CCCCCCC=CCCC[C@@](C)(C(=O)N[C@@H](Cc2ccc(O)cc2)C(=O)N[C@@H](Cc2ccc(O)cc2)C(=O)N[C@@H](C)C(N)=O)NC(=O)[C@H](CC(N)=O)NC(=O)[C@H](Cc2ccccc2)NC(=O)[C@H](C)NC(=O)[C@H](CC(=O)O)NC(=O)CNC(=O)[C@H]([C@@H](C)CC)NC1=O)[C@@H](C)CC
# B4: SEQ ID NO: 1730 (peptide)
# peptide: Ac-ILIAAALR[R8]IGDAFN[S5]YYA-NH2
# modifications: staple 9-16
# SMILES: CC[C@H](C)[C@H](NC(C)=O)C(=O)N[C@@H](CC(C)C)C(=O)N[C@H](C(=O)N[C@@H](C)C(=O)N[C@@H](C)C(=O)N[C@@H](C)C(=O)N[C@@H](CC(C)C)C(=O)N[C@@H](CCCNC(=N)N)C(=O)N[C@]1(C)CCCCCCC=CCCC[C@@](C)(C(=O)N[C@@H](Cc2ccc(O)cc2)C(=O)N[C@@H](Cc2ccc(O)cc2)C(=O)N[C@@H](C)C(N)=O)NC(=O)[C@H](CC(N)=O)NC(=O)[C@H](Cc2ccccc2)NC(=O)[C@H](C)NC(=O)[C@H](CC(=O)O)NC(=O)CNC(=O)[C@H]([C@@H](C)CC)NC1=O)[C@@H](C)CC
# B5: SEQ ID NO: 1732 (peptide)
# peptide: Ac-I[2Nal]IAAALR[R8]IGDAFN[S5]YYA-NH2
# modifications: staple 9-16
# SMILES: CC[C@H](C)[C@H](NC(C)=O)C(=O)N[C@@H](Cc1ccc2ccccc2c1)C(=O)N[C@H](C(=O)N[C@@H](C)C(=O)N[C@@H](C)C(=O)N[C@@H](C)C(=O)N[C@@H](CC(C)C)C(=O)N[C@@H](CCCNC(=N)N)C(=O)N[C@]1(C)CCCCCCC=CCCC[C@@](C)(C(=O)N[C@@H](Cc2ccc(O)cc2)C(=O)N[C@@H](Cc2ccc(O)cc2)C(=O)N[C@@H](C)C(N)=O)NC(=O)[C@H](CC(N)=O)NC(=O)[C@H](Cc2ccccc2)NC(=O)[C@H](C)NC(=O)[C@H](CC(=O)O)NC(=O)CNC(=O)[C@H]([C@@H](C)CC)NC1=O)[C@@H](C)CC
# notes: Row prints Ac-I2NalIAAALR$r8IGDAFN$YYA-NH2
# B6: SEQ ID NO: 1729 (peptide)
# peptide: Ac-INIAAALR[R8]IGDAFN[S5]YYA-NH2
# modifications: staple 9-16
# SMILES: CC[C@H](C)[C@H](NC(C)=O)C(=O)N[C@@H](CC(N)=O)C(=O)N[C@H](C(=O)N[C@@H](C)C(=O)N[C@@H](C)C(=O)N[C@@H](C)C(=O)N[C@@H](CC(C)C)C(=O)N[C@@H](CCCNC(=N)N)C(=O)N[C@]1(C)CCCCCCC=CCCC[C@@](C)(C(=O)N[C@@H](Cc2ccc(O)cc2)C(=O)N[C@@H](Cc2ccc(O)cc2)C(=O)N[C@@H](C)C(N)=O)NC(=O)[C@H](CC(N)=O)NC(=O)[C@H](Cc2ccccc2)NC(=O)[C@H](C)NC(=O)[C@H](CC(=O)O)NC(=O)CNC(=O)[C@H]([C@@H](C)CC)NC1=O)[C@@H](C)CC
# B7: SEQ ID NO: 1731 (peptide)
# peptide: Ac-IFIAAALR[R8]IGDAFN[S5]YYA-NH2
# modifications: staple 9-16
# SMILES: CC[C@H](C)[C@H](NC(C)=O)C(=O)N[C@@H](Cc1ccccc1)C(=O)N[C@H](C(=O)N[C@@H](C)C(=O)N[C@@H](C)C(=O)N[C@@H](C)C(=O)N[C@@H](CC(C)C)C(=O)N[C@@H](CCCNC(=N)N)C(=O)N[C@]1(C)CCCCCCC=CCCC[C@@](C)(C(=O)N[C@@H](Cc2ccc(O)cc2)C(=O)N[C@@H](Cc2ccc(O)cc2)C(=O)N[C@@H](C)C(N)=O)NC(=O)[C@H](CC(N)=O)NC(=O)[C@H](Cc2ccccc2)NC(=O)[C@H](C)NC(=O)[C@H](CC(=O)O)NC(=O)CNC(=O)[C@H]([C@@H](C)CC)NC1=O)[C@@H](C)CC
# B8: SEQ ID NO: 1728 (peptide)
# peptide: Ac-ISIAAALR[R8]IGDAFN[S5]YYA-NH2
# modifications: staple 9-16
# SMILES: CC[C@H](C)[C@H](NC(C)=O)C(=O)N[C@@H](CO)C(=O)N[C@H](C(=O)N[C@@H](C)C(=O)N[C@@H](C)C(=O)N[C@@H](C)C(=O)N[C@@H](CC(C)C)C(=O)N[C@@H](CCCNC(=N)N)C(=O)N[C@]1(C)CCCCCCC=CCCC[C@@](C)(C(=O)N[C@@H](Cc2ccc(O)cc2)C(=O)N[C@@H](Cc2ccc(O)cc2)C(=O)N[C@@H](C)C(N)=O)NC(=O)[C@H](CC(N)=O)NC(=O)[C@H](Cc2ccccc2)NC(=O)[C@H](C)NC(=O)[C@H](CC(=O)O)NC(=O)CNC(=O)[C@H]([C@@H](C)CC)NC1=O)[C@@H](C)CC
# B9: SEQ ID NO: 1778 (peptide)
# peptide: Ac-IWIAQALR[R8][hLeu]GDAFN[S5][Phe(4-F)][Phe(4-F)]A-NH2
# modifications: staple 9-16
# SMILES: CC[C@H](C)[C@H](NC(C)=O)C(=O)N[C@@H](Cc1c[nH]c2ccccc12)C(=O)N[C@H](C(=O)N[C@@H](C)C(=O)N[C@@H](CCC(N)=O)C(=O)N[C@@H](C)C(=O)N[C@@H](CC(C)C)C(=O)N[C@@H](CCCNC(=N)N)C(=O)N[C@]1(C)CCCCCCC=CCCC[C@@](C)(C(=O)N[C@@H](Cc2ccc(F)cc2)C(=O)N[C@@H](Cc2ccc(F)cc2)C(=O)N[C@@H](C)C(N)=O)NC(=O)[C@H](CC(N)=O)NC(=O)[C@H](Cc2ccccc2)NC(=O)[C@H](C)NC(=O)[C@H](CC(=O)O)NC(=O)CNC(=O)[C@H](CCC(C)C)NC1=O)[C@@H](C)CC
# B10: SEQ ID NO: 1733 (peptide)
# peptide: Ac-IWISAALR[R8]IGDAFN[S5]YYA-NH2
# modifications: staple 9-16
# SMILES: CC[C@H](C)[C@H](NC(C)=O)C(=O)N[C@@H](Cc1c[nH]c2ccccc12)C(=O)N[C@H](C(=O)N[C@@H](CO)C(=O)N[C@@H](C)C(=O)N[C@@H](C)C(=O)N[C@@H](CC(C)C)C(=O)N[C@@H](CCCNC(=N)N)C(=O)N[C@]1(C)CCCCCCC=CCCC[C@@](C)(C(=O)N[C@@H](Cc2ccc(O)cc2)C(=O)N[C@@H](Cc2ccc(O)cc2)C(=O)N[C@@H](C)C(N)=O)NC(=O)[C@H](CC(N)=O)NC(=O)[C@H](Cc2ccccc2)NC(=O)[C@H](C)NC(=O)[C@H](CC(=O)O)NC(=O)CNC(=O)[C@H]([C@@H](C)CC)NC1=O)[C@@H](C)CC
# B11: SEQ ID NO: 1735 (peptide)
# peptide: Ac-IWIFAALR[R8]IGDAFN[S5]YYA-NH2
# modifications: staple 9-16
# SMILES: CC[C@H](C)[C@H](NC(C)=O)C(=O)N[C@@H](Cc1c[nH]c2ccccc12)C(=O)N[C@H](C(=O)N[C@@H](Cc1ccccc1)C(=O)N[C@@H](C)C(=O)N[C@@H](C)C(=O)N[C@@H](CC(C)C)C(=O)N[C@@H](CCCNC(=N)N)C(=O)N[C@]1(C)CCCCCCC=CCCC[C@@](C)(C(=O)N[C@@H](Cc2ccc(O)cc2)C(=O)N[C@@H](Cc2ccc(O)cc2)C(=O)N[C@@H](C)C(N)=O)NC(=O)[C@H](CC(N)=O)NC(=O)[C@H](Cc2ccccc2)NC(=O)[C@H](C)NC(=O)[C@H](CC(=O)O)NC(=O)CNC(=O)[C@H]([C@@H](C)CC)NC1=O)[C@@H](C)CC
# B12: SEQ ID NO: 1734 (peptide)
# peptide: Ac-IWILAALR[R8]IGDAFN[S5]YYA-NH2
# modifications: staple 9-16
# SMILES: CC[C@H](C)[C@H](NC(C)=O)C(=O)N[C@@H](Cc1c[nH]c2ccccc12)C(=O)N[C@H](C(=O)N[C@@H](CC(C)C)C(=O)N[C@@H](C)C(=O)N[C@@H](C)C(=O)N[C@@H](CC(C)C)C(=O)N[C@@H](CCCNC(=N)N)C(=O)N[C@]1(C)CCCCCCC=CCCC[C@@](C)(C(=O)N[C@@H](Cc2ccc(O)cc2)C(=O)N[C@@H](Cc2ccc(O)cc2)C(=O)N[C@@H](C)C(N)=O)NC(=O)[C@H](CC(N)=O)NC(=O)[C@H](Cc2ccccc2)NC(=O)[C@H](C)NC(=O)[C@H](CC(=O)O)NC(=O)CNC(=O)[C@H]([C@@H](C)CC)NC1=O)[C@@H](C)CC
# Biological target: T1, MCL-1 (UniProt Q07820 172-327, limits assumed)
# T1 construct: Target of the Ki columns; also called Myeloid cell leukemia 1
# Test: Ki; method not stated; unit not printed (nM per Table 6)
# T1 sequence (Q07820 172-327 limits assumed): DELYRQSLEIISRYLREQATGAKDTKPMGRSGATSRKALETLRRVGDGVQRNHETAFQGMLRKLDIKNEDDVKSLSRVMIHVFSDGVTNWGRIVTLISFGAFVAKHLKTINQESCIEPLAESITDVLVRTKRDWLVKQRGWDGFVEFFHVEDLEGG
row,Ki,Binder
1,52 nM,B1
2,23 nM,B2
3,6.6 nM,B3
4,10.2 nM,B4
5,13.7 nM,B5
6,11.2 nM,B6
7,10.2 nM,B7
8,15.3 nM,B8
9,127 nM,B9
10,29 nM,IWIAQALRAIGDAFNAYYX (N-terminal Ac; $r8 at 9 and $ at 16 (crosslinked); Aib at 19; C-terminal NH2) [SEQ ID NO: 1770]
11,3.6 nM,B10
12,17.2 nM,B11
13,19.7 nM,B12

# Biological target: T2, BCL-XL (UniProt Q07817 1-209)
# T2 construct: Target of the Ki columns
# Test: as above
# T2 sequence (Q07817 1-209): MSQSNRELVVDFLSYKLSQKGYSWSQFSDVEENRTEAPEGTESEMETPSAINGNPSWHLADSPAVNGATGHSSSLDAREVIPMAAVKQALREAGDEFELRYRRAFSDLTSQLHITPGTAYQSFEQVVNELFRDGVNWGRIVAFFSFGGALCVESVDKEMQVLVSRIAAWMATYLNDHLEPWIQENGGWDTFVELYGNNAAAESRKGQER
row,Ki,Binder
1,37 nM,B1
2,9 nM,B2
3,19.5 nM,B3
4,71.8 nM,B4
5,55.3 nM,B5
6,37.3 nM,B6
7,45.3 nM,B7
8,56.2 nM,B8
9,121 nM,B9
10,67.8 nM,B10
11,110 nM,B11
12,96.2 nM,B12

# Biological target: T3, BCL-2 (UniProt P10415 1-217, limits assumed)
# T3 construct: Target of the Ki columns
# Test: as above
# T3 sequence (P10415 1-217 limits assumed): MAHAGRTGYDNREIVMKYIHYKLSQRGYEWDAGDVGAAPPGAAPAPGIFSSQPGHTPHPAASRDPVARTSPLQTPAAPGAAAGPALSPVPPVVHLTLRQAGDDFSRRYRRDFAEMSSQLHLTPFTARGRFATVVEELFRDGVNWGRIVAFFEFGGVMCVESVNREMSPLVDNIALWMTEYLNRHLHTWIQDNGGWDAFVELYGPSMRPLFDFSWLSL
row,Ki,Binder
1,43 nM,B3
2,126 nM,B4
3,144 nM,B5
4,62.5 nM,B6
5,95.9 nM,B7
6,89.5 nM,B8
7,218 nM,IWIAQALRAIGDAFNAYYX (N-terminal Ac; $r8 at 9 and $ at 16 (crosslinked); Aib at 19; C-terminal NH2) [SEQ ID NO: 1770]
8,117 nM,B10
9,125 nM,B11
10,170 nM,B12
